Source: the supplement of paper PMC10567573

B1: ZBTB22 (parent)
chain: RPFDCPVCNKKFKMKHHLTEHMKT

Variants of: B1
Experiment: protein stability index of a GFP-peptide fusion (GPS, HEK-293T) (PSI 1-6); higher = more stable
Settings: c terminus: a fixed tail appended
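Also: lentivirally expressed fusions sorted by FACS into six bins by GFP to DsRed ratio, PSI derived from sequencing read proportions per bin multiplied by bin number.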

Protein stability index, by site and new letter:
K23: I 2.38, P 2.48, W 1.98, G 2.99, F 1.95, N 3.29, M 2.11, R 2.26, Y 2.17, C 4.19, H 3.06, A 2.3, S 2.4, L 2.38, V 2.37
C8: D 3.25, Y 2.9, F 2.26, M 2.93, Q 2.81, E 2.97, N 2.98, I 2.72, T 3.48, A 2.99, V 3.5, S 3.03, K 3.34, W 2.42, H 3, P 2.62
E20: F 2.21, D 2.99, M 2.62, K 3.1, R 3.45, V 2.36, W 2.08, S 1.93, Y 1.85, H 2.44
K13: S 2.91, W 2.58, H 2.65, V 2.9, F 2.33, Y 2.72, M 2.27, R 2.33, I 2.14, G 2.6, D 3.45, E 3.31, N 2.29, T 3.12, Q 3.12
P6: C 2.21, I 2.03, D 3.46, F 2.15, E 2.85, K 2.9, Q 2.32, W 1.86, H 2.27, S 2.42, L 2.68, V 2.37, N 2.68
T19: C 4.25, Y 2.41, P 2.48, K 2.48, Q 2.33, G 3.17, F 2.28, R 3.34, N 2.88, W 2.02, H 2.8, D 3.19, A 2.89, V 3, I 3.07, M 3.18
M22: G 2.68, D 3.1, C 2.93, H 2.75, I 2.15, N 2.62, F 2.3, L 2.95, T 2.38, V 1.89, S 2.29, P 2.48
L18: D 2.39, V 3.5, E 2.78, G 3.36, F 2.7, Q 2.58, C 4.01, N 2.59, P 2.37, S 2.44, Y 2.25, I 2.1
F3: E 2.6, R 1.98, D 2.93, T 3.09, W 2.57, C 2.98, Q 2.86, H 2.56, K 2.61, G 2.49, P 2.74, S 2.58, M 2.45, I 2.55, Y 3.1
H21: E 2.88, K 2.25, M 1.54, A 2.74, C 3.33, T 2.24, N 2.38, L 1.45, W 2.13, G 2.38, F 2.06, Q 2.34, P 2.37, R 2.25, D 2.37, S 2.52, I 1.84
D4: Y 3.25, F 2.95, V 3.54, Q 3.46, G 2.73, L 2.92, N 2.88, K 3.28, C 3.54, E 3.6, A 3.31, W 2.6, M 3.5
F12: A 2.44, C 4.09, W 2.02, Q 2.6, G 2.65, D 2.22, T 2.64, L 2.38, K 2.1, V 2.04, M 2.78, E 3.22, R 1.83, S 2.53, H 2.6
V7: K 2.96, E 3.58, Y 3, F 3.21, P 2.7, G 3.06, C 3.91, Q 2.45, M 2.25, I 3.09, A 2.21, W 2.85, R 2.39, N 2.48, H 3.27, T 2.47
R1: L 2.35, N 2.64, Q 2.8, H 2.88, M 2.71, G 3.08, S 2.71, K 2.74, C 3.18, I 2.87, D 3.31, T 2.96, Y 2.38, A 3, E 3.67, F 2.38
M14: W 2.26, S 3.96, P 2.5, A 3.09, H 3.48, E 3.72, T 3.75, L 2.46, Y 3.1
N9: V 2.06, Q 2.33, A 2.95, P 2.43, E 3.36, S 2.43, K 3.23, G 3.59, T 2.27, R 2.03, D 3.13, Y 2.07, H 3.23, C 2.43, I 1.92, W 1.49, M 2.54
K10: L 2.19, N 2.45, C 2.49, Q 2.21, H 2.47, W 1.7, M 2.46, D 2.43, G 2.25, Y 2.29, T 2.96, A 2.52, S 2.63, I 2.03, V 2.11
C5: E 3.76, S 3.15, I 2.64, W 2.41, N 3, M 2.9, K 3.19, H 2.78, P 3.23, R 3.21, T 3.71, Q 2.94, L 2.6, V 2.61
T24: Y 2.01, D 3.55, P 2.45, A 2.87, L 3.19, I 1.95, V 2.34, F 2.46, G 2.44, S 2.53, H 2.41
H17: D 3.07, L 1.94, G 1.74, W 2.08, Q 2.74, N 2.62, A 2.17, E 3.42, V 2.24, I 1.79, T 2.15, C 2.25, F 1.73, K 3.1
K15: Y 2.37, A 2.03, I 1.76, G 2.78, S 2.22, V 2.62, L 2.65, C 4.13, M 2.24, H 2.24, W 2.47, T 1.87, R 2.19
H16: E 3.27, G 2.11, K 2.55, R 2.29, Y 2.28, Q 2.7, T 2.39, P 2.25, M 2.71, V 2.08, S 2.83, W 2.27, I 2.08
K11: H 2.85, C 2.44, N 2.79, T 2.91, F 1.8, W 2.21, Q 2.31, A 2.23, L 2.25, E 2.89, V 2.52, M 1.84, G 2.43
P2: Q 2.76, R 2.12, V 2.12, W 2.52, A 2.83, M 2.46, L 2.3, I 2.37, N 2.34, Y 2.6, C 2.19, E 3.26, H 2.97, K 2.83
